Data published in patent publication US20250011363A1, “OPTIMIZED SHORTENED PEPTIDE THAT BINDS TO ACETYLCHOLINE RECEPTOR, AND USE THEREOF” (SKINMED CO., LTD., priority 2021, published 2025).

B1: 6mer-1-526 (peptide)
peptide: KRGYTR
B2: 6mer-1-519 (peptide)
peptide: KRRQCK
B3: 6mer-1-530 (peptide)
peptide: KRLVSK
B4: 6mer-1-510 (peptide)
peptide: KRRQSR
B5: 6mer-1-516 (peptide)
peptide: KKRFSR
B6: 6mer-1-515 (peptide)
peptide: RRGLSR
B7: 6mer-1-500 (peptide)
peptide: RKLQSK
B8: 6mer-1-514 (peptide)
peptide: KKGRSK
B9: 6mer-1-506 (peptide)
peptide: RRRLSK
B10: 6mer-1-490 (peptide)
peptide: KKLFRR
B11: 6mer-1-529 (peptide)
peptide: RRSLCK
B12: 6mer-1-503 (peptide)
peptide: KRRLCK
B13: 6mer-1-511 (peptide)
peptide: RKVYRR
B14: 6mer-1-489 (peptide)
peptide: KKVITK
B15: 6mer-1-482 (peptide)
peptide: RKQVRK
B16: 6mer-1-504 (peptide)
peptide: RRSITR
B17: 6mer-1-517 (peptide)
peptide: KKGLCK
B18: 6mer-1-487 (peptide)
peptide: RKGRRK
B19: 6mer-1-497 (peptide)
peptide: KRRQLR
B20: 6mer-1-479 (peptide)
peptide: RRSLTR
B21: 6mer-1-478 (peptide)
peptide: RKVRYK
B22: 6mer-1-512 (peptide)
peptide: RKWICK
B23: 6mer-1-522 (peptide)
peptide: RKRRLR
B24: 6mer-1-496 (peptide)
peptide: RRVYQR
B25: 6mer-1-528 (peptide)
peptide: KRSYTR
B26: 6mer-1-533 (peptide)
peptide: RKWFSR
B27: 6mer-1-480 (peptide)
peptide: KKQFYK
B28: 6mer-1-507 (peptide)
peptide: RRSQSK
B29: 6mer-1-495 (peptide)
peptide: RKGFQR
B30: 6mer-1-491 (peptide)
peptide: RKLRLR
B31: 6mer-1-498 (peptide)
peptide: RKRQQK
B32: 6mer-1-520 (peptide)
peptide: KRQIYK
B33: 6mer-1-492 (peptide)
peptide: RRWRQK
B34: 6mer-1-485 (peptide)
peptide: RRWYRR
B35: 6mer-1-475 (peptide)
peptide: RKLQTK
B36: 6mer-1-494 (peptide)
peptide: KKLFSR
B37: 6mer-1-505 (peptide)
peptide: RRRFTR
B38: 6mer-1-488 (peptide)
peptide: KKWYSK
B39: 6mer-1-524 (peptide)
peptide: KKGRQK
B40: 6mer-1-493 (peptide)
peptide: KRGYLR
B41: 6mer-1-483 (peptide)
peptide: KRQVTK
B42: 6mer-1-499 (peptide)
peptide: RKLFYR
B43: 6mer-1-509 (peptide)
peptide: RKWLRK
B44: 6mer-1-531 (peptide)
peptide: RKGQTK
B45: 6mer-1-534 (peptide)
peptide: KKRLCR
B46: 6mer-1-525 (peptide)
peptide: RRQLRR
B47: 6mer-1-476 (peptide)
peptide: KRRRQK
B48: 6mer-1-477 (peptide)
peptide: KRQQTK
B49: 6mer-1-486 (peptide)
peptide: KRQVRK
B50: 6mer-1-481 (peptide)
peptide: KRWRCK
B51: 6mer-1-508 (peptide)
peptide: RRQFSK
B52: 6mer-1-484 (peptide)
peptide: KKLYLR
B53: 6mer-1-501 (peptide)
peptide: KRVLYK
B54: 6mer-1-532 (peptide)
peptide: KKSQLR
B55: 6mer-1-523 (peptide)
peptide: KRRRSK
B56: 6mer-1-502 (peptide)
peptide: RKLFSR
B57: 6mer-1-527 (peptide)
peptide: KKGIYR
B58: 6mer-1-518 (peptide)
peptide: KRWVLK
B59: 6mer-1-513 (peptide)
peptide: RKQIRR
B60: 6mer-1-521 (peptide)
peptide: RKVISR
B61: 6mer-1-341 (peptide)
peptide: RKQQQR
B62: 6mer-1-339 (peptide)
peptide: KKSIQK
B63: 6mer-1-343 (peptide)
peptide: KKLYTK
B64: 6mer-1-340 (peptide)
peptide: KRLLCK
B65: 6mer-1-346 (peptide)
peptide: KKRIYR
B66: 6mer-1-345 (peptide)
peptide: KKLLCR
B67: 6mer-1-347 (peptide)
peptide: KKQQSK
B68: 6mer-1-336 (peptide)
peptide: KRVVTK
B69: 6mer-1-344 (peptide)
peptide: KKSQCR
B70: 6mer-1-337 (peptide)
peptide: RKSRRR
B71: 6mer-1-350 (peptide)
peptide: KKLQTK
B72: 6mer-1-335 (peptide)
peptide: RRSQRR
B73: 6mer-1-342 (peptide)
peptide: RKRFCR
B74: 6mer-1-348 (peptide)
peptide: RKQRLK
B75: 6mer-1-352 (peptide)
peptide: RKVFRK
B76: 6mer-1-351 (peptide)
peptide: RRGLRK
B77: 6mer-1-338 (peptide)
peptide: KKQVLK
B78: 6mer-1-349 (peptide)
peptide: KRLYSK

Molecular target: acetylcholine receptor
Experiment: SPR, receptor on CM5 chip, peptide 10 µM

Binder | Binding affinity (RU)
B1 | 148
B2 | 147
B3 | 137
B4 | 122
B5 | 139
B6 | 139
B7 | 151
B8 | 128
B9 | 151
B10 | 133
B11 | 139
B12 | 151
B13 | 136
B14 | 148
B15 | 133
B16 | 122
B17 | 139
B18 | 121
B19 | 133
B20 | 135

Binder | Binding affinity (RU)
B21 | 139
B22 | 154
B23 | 126
B24 | 148
B25 | 139
B26 | 145
B27 | 121
B28 | 139
B29 | 126
B30 | 137
B31 | 139
B32 | 127
B33 | 139
B34 | 126
B35 | 148
B36 | 128
B37 | 148
B38 | 135
B39 | 148
B40 | 131

Binder | Binding affinity (RU)
B41 | 151
B42 | 149
B43 | 128
B44 | 135
B45 | 126
B46 | 139
B47 | 154
B48 | 145
B49 | 151
B50 | 133
B51 | 135
B52 | 154
B53 | 154
B54 | 121
B55 | 139
B56 | 146
B57 | 142
B58 | 153
B59 | 154
B60 | 128

Molecular target: acetylcholine receptor
Experiment: SPR, AchR immobilized on CM5 chip, peptide 10 uM

Binder | Binding affinity (RU)
B61 | 128
B62 | 147
B63 | 135
B64 | 142
B65 | 123
B66 | 147
B67 | 126
B68 | 154
B69 | 125
B70 | 144
B71 | 153
B72 | 148
B73 | 131
B74 | 142
B75 | 142
B76 | 141
B77 | 127
B78 | 123
